Source: US20240116985A1 (published 2024)
Starred links: 1 amine or outer side, 2 acyl side, 3 side chain; linkers in the order of their positions; H or OH if unused. Positions of bridges follow the written chain, without caps; N, C: chain ends. Non-standard residues stand in square brackets, D forms with d. Primed or numbered codes have the meaning given here. *: point of attachment. PyrS2″ = (S)-3-amino-1-((pent-4-en-1-yloxy)carbonyl)pyrrolidine-3-carboxylic acid (stapling residue), C=CCCCOC(=O)N1CC[C@@](N[*:1])(C(=O)[*:2])C1; B5(24) = 2-amino-2-(pent-4-en-1-yl)hept-6-enoic acid, 2,2-bis(4-pentenyl)glycine (stitching residue), C=CCCCC(CCCC=C)(N[*:1])C(=O)[*:2]; B5(4) = 2,2-bis(4-pentenyl)glycine = 2-amino-2-(pent-4-en-1-yl)hept-6-enoic acid (stitching residue), C=CCCCC(CCCC=C)(N[*:1])C(=O)[*:2]; B5(5) = 2,2-bis(4-pentenyl)glycine, 2-amino-2-(pent-4-en-1-yl)hept-6-enoic acid (stitching residue), C=CCCCC(CCCC=C)(N[*:1])C(=O)[*:2]; B5(33) = 2-amino-2-(pent-4-en-1-yl)hept-6-enoic acid (bis-pentenylglycine, two olefin side chains), C=CCCCC(CCCC=C)(N[*:1])C(=O)[*:2]; TfeGA = (S)-2-amino-3-((carboxymethyl)(2,2,2-trifluoroethyl)amino)propanoic acid, O=C([C@H](CN(CC(=O)[*:3])CC(F)(F)F)N[*:1])[*:2]; PyrS2 = (S)-3-amino-1-((pent-4-en-1-yloxy)carbonyl)pyrrolidine-3-carboxylic acid, C=CCCCOC(=O)N1CC[C@@](N[*:1])(C(=O)[*:2])C1; B5(3) = 2,2-bis(4-pentenyl)glycine (stitching residue), C=CCCCC(CCCC=C)(N[*:1])C(=O)[*:2]; mPEG2 = N-terminal 3-(2-methoxyethoxy)propanoic acid, COCCOCCC(=O)*; Phe(3-COOH) = N[C@@H](Cc1cccc(C(=O)O)c1)C(=O)O; Phe(2-Cl) = N[C@@H](Cc1ccccc1Cl)C(=O)O; 1Nal = N[C@@H](Cc1cccc2ccccc12)C(=O)O; 2Nal = N[C@@H](Cc1ccc2ccccc2c1)C(=O)O; Bta = N[C@@H](Cc1csc2ccccc12)C(=O)O; Lys(iPr) = CC(C)NCCCC[C@H](N)C(=O)O; αAllylPro = C=CC[C@@]1(C(=O)O)CCCN1; tBuAla = CC(C)(C)C[C@H](N)C(=O)O; 3Thi = N[C@@H](Cc1ccsc1)C(=O)O; Cha = N[C@@H](CC1CCCCC1)C(=O)O; S8 = C=CCCCCCC[C@](C)(N)C(=O)O; Thr(ol) = C[C@@H](O)[C@H](N)CO; Propanoyl(3-OMe) = COCCC(=O)*; PyrS2(4) = not defined here; Leu(ol) = CC(C)C[C@H](N)CO; Alaol = C[C@@H](CO)N*; Ms = CS(=O)(=O)*

B1: I-2038 (peptide)
peptide: Ac-[αAllylPro]D[tBuAla][B5(3)]D[Phe(3-COOH)]AAFS[PyrS2(4)][Phe(2-Cl)][Bta]N-NH2
modifications: staple 1-4, 4-11; not fully specified; reading uncertain; also: staple isomer, earlier eluting HPLC peak
B2: I-1258 (peptide)
peptide: Ms-[αAllylPro]D[tBuAla][B5(33)]DDAAFN[PyrS2][Phe(2-Cl)][Bta][dT]-NH2
modifications: staple 1-4, 4-11; not fully specified; printed as MeSO2-PL3-Asp-Npg-B5-Asp-Asp-Ala-Ala-Phe-Asn-PyrS2-2C1F-BztA-dThr-NH2
B3: I-1260 (peptide)
peptide: XDXXDDAAFTXFXQ
modifications: not fully specified; MeSO2-PL3-Asp-Npg-B5-Asp-Asp-Ala-Ala-Phe-Thr-S8-2C1F-BztA-Gln-NH2; stapled by olefin metathesis (PL3-B5 and B5-S8)

These binders were tested against T1, B-cat-Halo (Homo sapiens (Human), UniProt P35222 1-781) (assay: cell-based or functional assay).
T1 sequence: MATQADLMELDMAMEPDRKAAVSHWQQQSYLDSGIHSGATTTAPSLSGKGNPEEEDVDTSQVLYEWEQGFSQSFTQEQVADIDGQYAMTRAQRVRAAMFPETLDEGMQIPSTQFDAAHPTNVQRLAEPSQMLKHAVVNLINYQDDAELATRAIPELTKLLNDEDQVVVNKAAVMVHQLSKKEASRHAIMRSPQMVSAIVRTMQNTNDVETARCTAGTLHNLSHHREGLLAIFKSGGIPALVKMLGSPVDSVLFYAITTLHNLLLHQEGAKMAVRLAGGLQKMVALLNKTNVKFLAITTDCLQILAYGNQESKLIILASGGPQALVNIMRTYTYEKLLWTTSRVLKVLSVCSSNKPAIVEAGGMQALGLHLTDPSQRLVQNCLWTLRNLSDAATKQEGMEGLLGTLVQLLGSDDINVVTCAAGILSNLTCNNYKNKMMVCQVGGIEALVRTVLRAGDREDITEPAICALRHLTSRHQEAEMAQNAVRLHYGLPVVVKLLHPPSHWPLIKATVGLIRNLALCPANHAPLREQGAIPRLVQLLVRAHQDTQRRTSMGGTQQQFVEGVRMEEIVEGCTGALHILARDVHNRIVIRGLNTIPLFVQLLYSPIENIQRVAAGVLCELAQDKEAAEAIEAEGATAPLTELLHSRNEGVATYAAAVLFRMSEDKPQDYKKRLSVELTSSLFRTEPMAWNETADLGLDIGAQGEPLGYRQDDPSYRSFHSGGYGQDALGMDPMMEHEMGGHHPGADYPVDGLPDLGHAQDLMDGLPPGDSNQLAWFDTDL
Ac-[αAllylPro]D[tBuAla][B5(3)]D[Phe(3-COOH)]AAFN[PyrS2″][Phe(2-Cl)][Bta]F-NH2 (staple 1-4, 4-11) [I-2033] was tested, and the “NanoBRET Abs IC50” value was 9.5 µM. In the case of Ac-[αAllylPro]D[tBuAla][B5(3)]D[Phe(3-COOH)]AAFA[PyrS2″][Phe(2-Cl)][Bta]N-NH2 (staple 1-4, 4-11; also: staple isomer, earlier eluting HPLC peak) [I-2035], the “NanoBRET Abs IC50” value is reported as 14.5 µM. For Ac-[αAllylPro]D[tBuAla][B5(3)]D[Phe(3-COOH)]AAFA[PyrS2″][Phe(2-Cl)][Bta]N-NH2 (staple 1-4, 4-11) [I-2036], the “NanoBRET Abs IC50” value was 12.9 µM. For Ac-[αAllylPro]D[tBuAla][B5(3)]D[Phe(3-COOH)]AAFF[PyrS2″][Phe(2-Cl)][Bta]N-NH2 (staple 1-4, 4-11) [I-2037], the “NanoBRET Abs IC50” value was 5 µM. For B1, the “NanoBRET Abs IC50” value was 11.8 µM. For Ac-[αAllylPro]D[tBuAla][B5(3)]D[Phe(3-COOH)]AAFS[PyrS2″][Phe(2-Cl)][Bta]N-NH2 (staple 1-4, 4-11) [I-2039], the “NanoBRET Abs IC50” value was 10.5 µM. In the case of Ac-[αAllylPro]D[tBuAla][B5(3)]D[Phe(3-COOH)]AAFL[PyrS2″][Phe(2-Cl)][Bta]NAAA-NH2 (staple 1-4, 4-11) [I-2040], the “NanoBRET Abs IC50” value is reported as 2.8 µM. With Ac-[αAllylPro]D[tBuAla][B5(3)]D[Phe(3-COOH)]AAFA[PyrS2″][3Thi][Bta]N-NH2 (staple 1-4, 4-11) [I-2042] the “NanoBRET Abs IC50” value was 10 µM. With Ac-[αAllylPro]D[tBuAla][B5(3)]D[Phe(3-COOH)]AAFF[PyrS2″][3Thi][Bta]N-NH2 (staple 1-4, 4-11) [I-2044] the “NanoBRET Abs IC50” value was 2.6 µM. With Ac-[αAllylPro]D[tBuAla][B5(3)]D[Phe(3-COOH)]AAFS[PyrS2″][3Thi][Bta]N-NH2 (staple 1-4, 4-11) [I-2045] the “NanoBRET Abs IC50” value was 13.5 µM. Ac-[αAllylPro]D[tBuAla][B5(3)]D[Phe(3-COOH)]AAFL[PyrS2″][3Thi][Bta]NAAA-NH2 (staple 1-4, 4-11) [I-2046] was tested, and the “NanoBRET Abs IC50” value was 2.9 µM. In the case of Ac-[αAllylPro]D[tBuAla][B5(3)]D[TfeGA]AAFL[PyrS2″][3Thi][Bta]Q-NH2 (staple 1-4, 4-11; not fully specified (residue 9)) [I-2048], the “NanoBRET Abs IC50” value is reported as 28.8 µM. Ac-[αAllylPro]D[tBuAla][B5(3)]D[Phe(3-COOH)]NAFL[PyrS2″][3Thi][Bta]A-NH2 (staple 1-4, 4-11) [I-2049] was tested, and the “NanoBRET Abs IC50” value was 4.5 µM. For Ac-[αAllylPro]D[tBuAla][B5(3)]D[Phe(3-COOH)]SAFL[PyrS2″][3Thi][Bta]A-NH2 (staple 1-4, 4-11) [I-2050], the “NanoBRET Abs IC50” value was 4.9 µM.

The binders below were run against T2, B-cat-Halo (UniProt P35222 1-781) (assay: cell-based or functional assay).
T2 sequence (looked up): T1 sequence
For Ac-[αAllylPro]D[tBuAla][B5(24)]DDAAFN[PyrS2″][Phe(2-Cl)][Bta][Lys(iPr)]-NH2 (staple 1-4, 4-11) [I-1130], the “NanoBRET Abs IC50” value was 7.6 µM. In the case of Ac-[αAllylPro]D[tBuAla][B5(24)]DD[Lys(iPr)]AFN[PyrS2″][Phe(2-Cl)][Bta]Q-NH2 (staple 1-4, 4-11) [I-1131], the “NanoBRET Abs IC50” value is reported as 18.8 µM. In the case of Ac-[αAllylPro]D[tBuAla][B5(24)]DDA[Lys(iPr)]FN[PyrS2″][Phe(2-Cl)][Bta]Q-NH2 (staple 1-4, 4-11) [I-1132], the “NanoBRET Abs IC50” value is reported as over 20 µM. For Ac-[αAllylPro]D[Cha][B5(24)]DDAAFS[PyrS2″][Phe(2-Cl)][Bta][dT]-NH2 (staple 1-4, 4-11) [I-1136], the “NanoBRET Abs IC50” value was 14.9 µM.

Each binder was assayed against T3, B-cat-Halo (beta-catenin HaloTag NanoBRET construct expressed in HEK293 cells) (Homo sapiens (Human), UniProt P35222 1-781) (assay: cell-based or functional assay).
T3 sequence: T1 sequence
With Ac-[αAllylPro]D[tBuAla][B5(4)]DDAAFT[PyrS2″][Phe(2-Cl)][Bta][Leu(ol)] (staple 1-4, 4-11) [I-1247] the “NanoBRET Abs IC50” value was over 20 µM. For Ac-[αAllylPro]D[tBuAla][B5(4)]DDAAFL[PyrS2″][Phe(2-Cl)][Bta]Q-NHEt (staple 1-4, 4-11) [I-1248], the “NanoBRET Abs IC50” value was 29.7 µM. For Ac-[αAllylPro]D[tBuAla][B5(4)]DDAAFL[PyrS2″][Phe(2-Cl)][Bta][Thr(ol)] (staple 1-4, 4-11) [I-1249], the “NanoBRET Abs IC50” value was 25.2 µM. Ac-[αAllylPro]D[tBuAla][B5(4)]DDAAFL[PyrS2″][Phe(2-Cl)][Bta]-Alaol (staple 1-4, 4-11) [I-1250] was tested, and the “NanoBRET Abs IC50” value was over 20 µM. mPEG2-[αAllylPro]D[tBuAla][B5(5)]DDAAFN[PyrS2″][Phe(2-Cl)][Bta][dT]-NH2 (staple 1-4, 4-11) [I-1253] was tested, and the “NanoBRET Abs IC50” value was over 20 µM. mPEG2-[αAllylPro]D[tBuAla][B5(33)]DDAAFT[S8][Phe(2-Cl)][Bta]Q-NH2 (staple 1-4, 4-11) [I-1255] was tested, and the “NanoBRET Abs IC50” value was over 20 µM. With B2 the “NanoBRET Abs IC50” value was over 20 µM. With {Propanoyl(3-OMe)}-[αAllylPro]D[tBuAla][B5(33)]DDAAFN[PyrS2][Phe(2-Cl)][Bta][dT]-NH2 (staple 1-4, 4-11) [I-1259] the “NanoBRET Abs IC50” value was 18.1 µM. With B3 the “NanoBRET Abs IC50” value was 24 µM. {Propanoyl(3-OMe)}-[αAllylPro]D[tBuAla][B5(33)]DDAAFT[S8][Phe(2-Cl)][Bta]Q-NH2 (staple 1-4, 4-11) [I-1261] was tested, and the “NanoBRET Abs IC50” value was 19.8 µM. Ac-[αAllylPro]D[tBuAla][B5(33)]DTAAFT[PyrS2]F[Bta]S-NH2 (staple 1-4, 4-11) [I-1263] was tested, and the “NanoBRET Abs IC50” value was 20 µM. Ac-[αAllylPro]D[tBuAla][B5(33)]DTLAFT[PyrS2]F[Bta]S-NH2 (staple 1-4, 4-11) [I-1264] was tested, and the “NanoBRET Abs IC50” value was over 20 µM. In the case of Ac-[αAllylPro]D[tBuAla][B5(33)]DTALFT[PyrS2]F[Bta]S-NH2 (staple 1-4, 4-11) [I-1265], the “NanoBRET Abs IC50” value is reported as 22.7 µM. For Ac-[αAllylPro]D[tBuAla][B5(5)]DTAA[1Nal]T[PyrS2″]F[Bta]S-NH2 (staple 1-4, 4-11) [I-1266], the “NanoBRET Abs IC50” value was over 20 µM. With Ac-[αAllylPro]D[tBuAla][B5(5)]DTAA[2Nal]T[PyrS2″]F[Bta]S-NH2 (staple 1-4, 4-11) [I-1267] the “NanoBRET Abs IC50” value was 36.9 µM.
